Results taken from patent US20050181450A1, “Novel inositol 1,4,5-trisphosphate (IP3) receptor-binding protein and an IP3 indicator” (priority 2002, published 2005).

Legend:
[1] = target: T1, GST-IIab (mouse IP3R1 amino acids 341-923) (Mus musculus, UniProt P11881); test: GST pulldown with GST-IIab; format: binding; conditions: IRBIT in high salt extract
T1 construct: made in house; host or cells: Escherichia coli
Source text: The cDNAs encoding the full-length and N-terminal region (amino acids 1-104) of IRBIT were subcloned into the Escherichia coli hexahistidine (His) fusion vector pET-23a(+) (Novagen) to generate IRBIT-His and IRBIT(1-104)-His expression vectors, respectively. The same cDNAs were subcloned into the GST fusion vector pGEX-4T-1 (Amersham Pharmacia Biotech) to generate GST-IRBIT and GST-IRBIT(1-104) expression vectors, respectively. The cDNA fragments encoding the amino acids 1-225, 1-343, 341-923, 600-1248, 916-1581 and 1553-1943 of the amino acid sequence (SEQ ID NO: 7) of mouse IP3R1 were inserted into pGEX-KG to generate GST-Ia, GST-Iab, GST-IIab, GST-IIbIIIa, GST-IIIab and GST-IV expression vectors, respectively. The amino acids 1593-2217 of mouse IP3R1 were inserted into pGEX-4T-1 to obtain GST-IV-Va expression vector. These fusion proteins were expressed in Escherichia coli. GST-EL was expressed in Sf9 cells as described above. […]
For the determination of the IRBIT binding region and the critical amino acid residue of IP3R1, the diluted high salt extract was subjected to pulldown assay as described above with 100 pmol of GST, GST-EL, GST-Ia, GST-Iab, GST-IbIIa, GST-IIab, GST-IIbIIIa, GST-IIIab, GST-IV, GST-IV-Va, K508A or R441Q, and analyzed by Western blotting with anti-IRBIT antibody.

[2] = target: T2, GST-EL (mouse IP3R1 amino acids 1-2217) (Mus musculus, UniProt P11881, N1264K); test: GST pulldown with GST-EL; format: binding
T2 construct: construct a GST-IP3R1 (1-2217) vector (termed GST-EL); made in house; host or cells: Sf9 cells (baculovirus)
T2 sequence (P11881 1-2217 N1264K): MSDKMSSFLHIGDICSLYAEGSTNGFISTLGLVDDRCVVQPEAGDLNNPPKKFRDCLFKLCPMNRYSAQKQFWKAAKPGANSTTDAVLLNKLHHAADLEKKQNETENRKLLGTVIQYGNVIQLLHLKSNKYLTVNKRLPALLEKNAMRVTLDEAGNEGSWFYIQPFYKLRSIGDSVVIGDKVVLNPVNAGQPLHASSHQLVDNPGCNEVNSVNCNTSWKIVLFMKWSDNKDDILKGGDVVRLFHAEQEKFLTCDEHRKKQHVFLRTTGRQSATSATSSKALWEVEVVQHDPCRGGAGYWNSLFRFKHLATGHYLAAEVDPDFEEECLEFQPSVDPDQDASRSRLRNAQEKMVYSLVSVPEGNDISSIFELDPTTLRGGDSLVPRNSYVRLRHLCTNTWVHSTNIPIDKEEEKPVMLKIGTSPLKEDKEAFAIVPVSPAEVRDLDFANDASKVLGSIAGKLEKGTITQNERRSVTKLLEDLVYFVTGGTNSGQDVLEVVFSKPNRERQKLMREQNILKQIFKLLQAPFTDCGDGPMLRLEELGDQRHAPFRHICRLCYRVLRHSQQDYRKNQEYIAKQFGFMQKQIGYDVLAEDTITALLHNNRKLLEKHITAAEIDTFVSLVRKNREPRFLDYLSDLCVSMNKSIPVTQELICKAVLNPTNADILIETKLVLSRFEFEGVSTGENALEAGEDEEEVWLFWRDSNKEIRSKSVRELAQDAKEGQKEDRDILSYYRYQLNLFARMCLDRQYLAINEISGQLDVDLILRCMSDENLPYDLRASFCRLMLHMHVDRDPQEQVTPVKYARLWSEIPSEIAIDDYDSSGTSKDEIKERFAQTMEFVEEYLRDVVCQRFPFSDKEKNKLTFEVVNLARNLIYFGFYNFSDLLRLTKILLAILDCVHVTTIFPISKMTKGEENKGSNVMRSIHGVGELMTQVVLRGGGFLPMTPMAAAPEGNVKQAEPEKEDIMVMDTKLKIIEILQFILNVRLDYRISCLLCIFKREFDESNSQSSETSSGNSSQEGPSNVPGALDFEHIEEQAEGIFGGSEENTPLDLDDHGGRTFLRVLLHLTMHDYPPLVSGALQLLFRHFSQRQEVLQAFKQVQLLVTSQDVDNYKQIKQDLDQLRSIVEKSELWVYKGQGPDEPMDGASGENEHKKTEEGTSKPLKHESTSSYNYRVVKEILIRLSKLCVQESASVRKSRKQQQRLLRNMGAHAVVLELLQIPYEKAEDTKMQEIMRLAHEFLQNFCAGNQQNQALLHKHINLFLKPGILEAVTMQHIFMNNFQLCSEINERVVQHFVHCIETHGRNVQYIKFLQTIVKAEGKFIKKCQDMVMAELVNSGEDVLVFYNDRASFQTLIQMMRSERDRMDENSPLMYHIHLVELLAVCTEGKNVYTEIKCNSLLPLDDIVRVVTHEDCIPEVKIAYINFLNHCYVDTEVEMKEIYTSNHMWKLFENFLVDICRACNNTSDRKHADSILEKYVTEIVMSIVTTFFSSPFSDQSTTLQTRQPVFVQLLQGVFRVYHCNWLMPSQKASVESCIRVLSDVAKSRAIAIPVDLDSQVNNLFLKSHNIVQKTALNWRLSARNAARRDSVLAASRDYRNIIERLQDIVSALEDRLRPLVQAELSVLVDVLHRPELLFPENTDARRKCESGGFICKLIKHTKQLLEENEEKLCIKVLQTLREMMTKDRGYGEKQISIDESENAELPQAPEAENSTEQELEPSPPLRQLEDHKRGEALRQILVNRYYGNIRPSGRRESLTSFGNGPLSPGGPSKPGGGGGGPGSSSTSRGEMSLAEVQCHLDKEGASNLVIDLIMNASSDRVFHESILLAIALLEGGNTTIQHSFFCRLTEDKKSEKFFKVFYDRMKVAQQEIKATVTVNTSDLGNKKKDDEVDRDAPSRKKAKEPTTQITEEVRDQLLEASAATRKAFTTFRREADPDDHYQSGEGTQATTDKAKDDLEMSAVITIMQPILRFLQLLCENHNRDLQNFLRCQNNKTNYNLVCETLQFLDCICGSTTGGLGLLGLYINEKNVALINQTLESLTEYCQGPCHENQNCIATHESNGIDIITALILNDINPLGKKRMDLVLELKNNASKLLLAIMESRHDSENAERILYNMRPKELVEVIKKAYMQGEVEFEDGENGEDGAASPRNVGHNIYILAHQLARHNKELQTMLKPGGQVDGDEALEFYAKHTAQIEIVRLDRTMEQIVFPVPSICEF
Method: Mouse cerebellar cytosolic fraction was diluted 2-fold with 10 mM Hepes (pH 7.4), 200 mM NaCl, 2 mM EDTA, 1 mM 2-ME and 0.02% Triton X-100. The high salt extract was diluted 5-fold with 10 mM Hepes (pH 7.4), 2 mM EDTA, 1 mM 2-ME and 0.01% Triton X-100. The diluted fractions (the final NaCl concentration of both fractions was 100 mM) were incubated with 20 μg of GST-EL or GST for 2 hours at 4° C. After adding 10 μl of glutathione-Sepharose and another 2 hours of incubation, the resins were washed 5 times with a wash buffer (10 mM Hepes (pH 7.4), 100 mM NaCl, 2 mM EDTA, 1 mM 2-ME, and 0.01% Triton X-100), and bound proteins were eluted with 20 mM glutathione.
The eluted proteins were analyzed by Western blotting with anti-IRBIT antibody. For dephosphorylation, the diluted high salt extract was incubated in the presence of or the absence of Escherichia coli alkaline phosphatase (Toyobo) with 2 mM MgCl2 for 30 minutes at 37° C. 5 mM EDTA was added, and then the resultant was subjected to pulldown assay as described above.
For the determination of the IP3R1-interacting region of IRBIT, Cos-7 cells expressing GFP-tagged full-length IRBIT or its truncated mutants were lysed in a lysis buffer (10 mM Hepes (pH7.4), 100 mM NaCl, 2 mM EDTA, 1 mM 2-ME, 0.5% Nonidet P-40, and protease inhibitor) for 30 minutes at 4° C., followed by centrifugation (100,000×g, 30 minutes). The supernatants were subjected to pulldown assay with GST-EL or GST as described above, and bound proteins were subjected to immunoblot analysis with anti-GFP antibody (Medical & Biological Laboratories).

T1 sequence (P11881 341-923): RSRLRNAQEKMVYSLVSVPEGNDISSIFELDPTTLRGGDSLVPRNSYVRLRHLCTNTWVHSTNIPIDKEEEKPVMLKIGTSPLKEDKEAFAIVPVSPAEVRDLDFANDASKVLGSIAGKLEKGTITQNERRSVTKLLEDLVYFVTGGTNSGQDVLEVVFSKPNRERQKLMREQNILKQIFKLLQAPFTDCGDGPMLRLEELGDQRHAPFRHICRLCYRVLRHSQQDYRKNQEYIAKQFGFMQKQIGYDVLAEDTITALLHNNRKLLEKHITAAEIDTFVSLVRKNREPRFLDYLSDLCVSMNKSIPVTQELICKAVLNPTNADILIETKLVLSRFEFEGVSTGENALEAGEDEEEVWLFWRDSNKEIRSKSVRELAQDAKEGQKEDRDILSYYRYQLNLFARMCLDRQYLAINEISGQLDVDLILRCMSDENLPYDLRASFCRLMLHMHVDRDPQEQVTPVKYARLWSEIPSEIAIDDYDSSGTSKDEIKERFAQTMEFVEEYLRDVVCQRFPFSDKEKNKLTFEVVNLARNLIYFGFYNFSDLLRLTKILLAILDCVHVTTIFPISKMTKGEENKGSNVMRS

B1: IRBIT: novel IP3 receptor-binding protein of 530 amino acids, SEQ ID NO: 1 (protein, listed as Mus musculus)
chain: MSMPDAMPLPGVGEELKQAKEIEDAEKYSFMATVTKAPKKQIQFADDMQEFTKFPTKTGRRSLSRSISQSSTDSYSSAASYTDSSDDEVSPREKQQTNSKGSSNFCVKNIKQAEFGRREIEIAEQDMSALISLRKRAQGEKPLAGAKIVGCTHITAQTAVLIETLCALGAQCRWSACNIYSTQNEVAAALAEAGVAVFAWKGESEDDFWWCIDRCVNMDGWQANMILDDGGDLTHWVYKKYPNVFKKIRGIVEESVTGVHRLYQLSKAGKLCVPAMNVNDSVTKQKFDNLYCCRESILDGLKRTTDVMFGGKQVVVCGYGEVGKGCCAALKALGAIVYITEIDPICALQACMDGFRVVKLNEVIRQVDVVITCTGNKNVVTREHLDRMKNSCIVCNMGHSNTEIDVTSLRTPELTWERVRSQVDHVIWPDGKRVVLLAEGRLLNLSCSTVPTFVLSITATTQALALIELYNAPEGRYKQDVYLLPKKMDEYVASLHLPSFDAHLTELTDDQAKYLGLNKNGPFKPNYYRY
interaction with GST-IIab [1]: did not interact | interaction with GST-EL ([2]; IRBIT in high salt extract of mouse cerebellar crude microsome): interacted with GST-EL | interaction with GST-EL ([2]; IRBIT in mouse cerebellar cytosolic fraction): did not interact with GST-EL | interaction with GST-EL ([2]; high salt extract treated with alkaline phosphatase): did not interact with GST-EL
